B1: SGN001681 sgRNA ; SGN001681 target (ssRNA ; dsDNA)
RNA: CCGUGCCUUGACCUACCCUGGUCAUAGUUCCAUUAAAGCCAAAAGUGGCUUUGAUGUUUCUAUGAUAAGGGUUUCGACCCGUGGCGUCGGGGAUCGCCUGCCCAUUGAAAUGGGCUUCUCCCCAUUUAUU
DNA 1: CCGTGCCTTGACCTACCCTG
DNA 2: CAGGGTAGGTCAAGGCACGG
B2: SGN000186 sgRNA (Table 2) ; SGN000186 target (Table 2) (ssRNA ; dsDNA)
RNA: GGACAGUGCGCAUCUCCCUGGUCAUAGUUCCAUUAAAGCCAAAAGUGGCUUUGAUGUUUCUAUGAUAAGGGUUUCGACCCGUGGCGUCGGGGAUCGCCUGCCCAUUGAAAUGGGCUUCUCCCCAUUUAUU
DNA 1: GGACAGTGCGCATCTCCCTG
DNA 2: CAGGGAGATGCGCACTGTCC

Tests used:
Conditions in all cases: tags: SV40 NLS, 3xFLAG, nucleoplasmin NLS
LPG50148-nAPG07433.1 = LPG50148-nAPG07433.1 (synthetic); assay: cell_activity; mutated reads, HEK293FT; PAM 3' of target
Description: (§1) 500 ng of plasmid comprising an expression cassette comprising a coding sequence for a fusion protein shown in Table 10 and 500 ng of plasmid comprising an expression cassette encoding for an sgRNA shown in Table 11 were co-transfected into HEK293FT cells at 75-90% confluency in 24-well plates using Lipofectamine 2000 reagent (Life Technologies). Cells were then incubated at 37° C. for 72 h. Following incubation, genomic DNA was then extracted using NucleoSpin 96 Tissue (Macherey-Nagel) following the manufacturer's protocol. The genomic region flanking the targeted genomic site was PCR amplified using the primers in Table 11 and products were purified using ZR-96 DNA Clean and Concentrator (Zymo Research) following the manufacturer's protocol. The purified PCR products underwent Next Generation Sequencing on Illumina MiSeq. Typically, 100,000 of 250 bp paired-end reads (2×100,000 reads) are generated per amplicon. The reads were analyzed using CRISPResso (Pinello, et al. 2016 Nature Biotech, 34:695-697) to calculate the rates of editing. Output alignments were analyzed for INDEL formation or introduction of specific adenine mutations.
(§2) The editing rate for adenines within or proximal to the target sequence is indicated. “A5” indicates, for example, an adenine at position 5 of the target sequence. The position of each nucleotide in the target sequence was determined by numbering the first nucleotide in the target sequence closest to the PAM (which is 3′ of the target for APG07433.1) as position 1, and the position number increases in the 5′ direction away from the PAM sequence. The tables also show which nucleotide the adenine was changed to, and at what rate.

LPG50154-nAPG07433.1 = LPG50154-nAPG07433.1 (synthetic); assay: cell_activity; mutated reads, HEK293FT
Description: as §1, §2

LPG50161-nAPG07433.1 = LPG50161-nAPG07433.1 (synthetic); assay: cell_activity; mutated reads, HEK293FT
Description: as §1, §2

LPG50153-nAPG07433.1 = LPG50153-nAPG07433.1 (synthetic); assay: cell_activity; mutated reads, HEK293FT
Sequence of LPG50153-nAPG07433.1 (synthetic) (chain, as listed by the source): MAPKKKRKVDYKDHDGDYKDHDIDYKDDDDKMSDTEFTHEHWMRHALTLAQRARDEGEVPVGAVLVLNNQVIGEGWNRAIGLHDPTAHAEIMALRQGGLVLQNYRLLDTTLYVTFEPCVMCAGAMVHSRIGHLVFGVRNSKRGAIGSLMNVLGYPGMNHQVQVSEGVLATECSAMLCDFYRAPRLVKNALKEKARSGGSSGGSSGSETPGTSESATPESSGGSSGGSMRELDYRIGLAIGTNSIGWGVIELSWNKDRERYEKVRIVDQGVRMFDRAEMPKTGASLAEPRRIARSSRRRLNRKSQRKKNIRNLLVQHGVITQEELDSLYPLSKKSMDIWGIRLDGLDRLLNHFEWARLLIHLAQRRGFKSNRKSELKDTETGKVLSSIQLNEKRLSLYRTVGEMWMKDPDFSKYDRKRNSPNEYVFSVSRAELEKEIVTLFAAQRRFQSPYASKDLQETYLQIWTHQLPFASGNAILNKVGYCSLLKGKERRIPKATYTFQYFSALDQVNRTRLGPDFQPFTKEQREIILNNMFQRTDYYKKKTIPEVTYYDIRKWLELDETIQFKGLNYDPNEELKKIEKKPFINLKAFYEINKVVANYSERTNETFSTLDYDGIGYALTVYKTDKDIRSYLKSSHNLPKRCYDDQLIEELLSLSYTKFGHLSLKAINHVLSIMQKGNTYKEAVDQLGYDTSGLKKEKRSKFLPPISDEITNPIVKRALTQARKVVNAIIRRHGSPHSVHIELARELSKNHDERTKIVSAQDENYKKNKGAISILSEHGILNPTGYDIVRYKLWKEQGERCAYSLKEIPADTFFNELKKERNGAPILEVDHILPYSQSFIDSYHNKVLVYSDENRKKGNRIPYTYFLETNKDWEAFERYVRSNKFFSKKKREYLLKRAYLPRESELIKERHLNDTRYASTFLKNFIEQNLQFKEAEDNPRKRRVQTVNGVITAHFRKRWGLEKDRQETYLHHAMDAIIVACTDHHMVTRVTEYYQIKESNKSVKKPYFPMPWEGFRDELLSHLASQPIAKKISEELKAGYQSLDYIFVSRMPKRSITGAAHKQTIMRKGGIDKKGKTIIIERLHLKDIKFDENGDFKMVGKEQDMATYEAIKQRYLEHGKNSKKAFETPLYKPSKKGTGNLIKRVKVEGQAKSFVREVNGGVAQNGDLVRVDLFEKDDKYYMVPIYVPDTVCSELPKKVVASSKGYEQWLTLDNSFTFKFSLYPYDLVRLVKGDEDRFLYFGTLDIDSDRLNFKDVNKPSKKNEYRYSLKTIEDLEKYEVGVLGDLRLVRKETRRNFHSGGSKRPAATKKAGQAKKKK
Description: as §1, §2

LPG50172-nAPG07433.1 = LPG50172-nAPG07433.1 (synthetic); assay: cell_activity; mutated reads, HEK293FT
Description: as §1, §2

LPG50180-nAPG07433.1 = LPG50180-nAPG07433.1 (synthetic); assay: cell_activity; mutated reads, HEK293FT
Description: as §1, §2

APG06333-nAPG07433.1 = APG06333-nAPG07433.1 (synthetic); assay: cell_activity; A16>G editing, HEK293FT
Description: (§3) 500 ng of plasmid comprising an expression cassette comprising a coding sequence for a fusion protein for each deaminase described in Table 1 and 500 ng of plasmid comprising an expression cassette encoding an sgRNA shown in Table 2 were co-transfected into HEK293FT cells at 75-90% confluency in 24-well plates using Lipofectamine 2000 reagent (Life Technologies). Cells were then incubated at 37° C. for 72 h. Following incubation, genomic DNA was then extracted using NucleoSpin 96 Tissue (Macherey-Nagel) following the manufacturer's protocol. The genomic region flanking the targeted genomic site was PCR amplified using the primers in Table 2 and products were purified using ZR-96 DNA Clean and Concentrator (Zymo Research) following the manufacturer's protocol. The purified PCR products underwent Next Generation Sequencing on Illumina MiSeq. Typically, 100,000 of 250 bp paired-end reads (2×100,000 reads) are generated per amplicon. The reads were analyzed using CRISPResso (Pinello, et al. 2016 Nature Biotech, 34:695-697) to calculate the rates of editing. Output alignments were analyzed for INDEL formation or introduction of specific adenine mutations. Tables 3 through 7 show adenine base editing for each fusion protein comprising nAPG07433.1 and a deaminase from Table 1 and a guide RNA from Table 2. The deaminase component of each fusion protein is indicated. The editing rate for adenines within or proximal to the target sequence is indicated. “A5” indicates, for example, an adenine at position 5 of the target sequence. The position of each nucleotide in the target sequence was determined by numbering the first nucleotide in the target sequence closest to the PAM as position 1, and the position number increases in the […] away from the PAM sequence. The tables also show which nucleotide the adenine was changed to, and at what rate.

APG05174-nAPG07433.1 = APG05174-nAPG07433.1 (synthetic); assay: cell_activity; A16>G editing, HEK293FT
Description: as §3

APG09949-nAPG07433.1 = APG09949-nAPG07433.1 (synthetic); assay: cell_activity; A16>G editing, HEK293FT
Sequence of APG09949-nAPG07433.1 (synthetic) (chain, as listed by the source): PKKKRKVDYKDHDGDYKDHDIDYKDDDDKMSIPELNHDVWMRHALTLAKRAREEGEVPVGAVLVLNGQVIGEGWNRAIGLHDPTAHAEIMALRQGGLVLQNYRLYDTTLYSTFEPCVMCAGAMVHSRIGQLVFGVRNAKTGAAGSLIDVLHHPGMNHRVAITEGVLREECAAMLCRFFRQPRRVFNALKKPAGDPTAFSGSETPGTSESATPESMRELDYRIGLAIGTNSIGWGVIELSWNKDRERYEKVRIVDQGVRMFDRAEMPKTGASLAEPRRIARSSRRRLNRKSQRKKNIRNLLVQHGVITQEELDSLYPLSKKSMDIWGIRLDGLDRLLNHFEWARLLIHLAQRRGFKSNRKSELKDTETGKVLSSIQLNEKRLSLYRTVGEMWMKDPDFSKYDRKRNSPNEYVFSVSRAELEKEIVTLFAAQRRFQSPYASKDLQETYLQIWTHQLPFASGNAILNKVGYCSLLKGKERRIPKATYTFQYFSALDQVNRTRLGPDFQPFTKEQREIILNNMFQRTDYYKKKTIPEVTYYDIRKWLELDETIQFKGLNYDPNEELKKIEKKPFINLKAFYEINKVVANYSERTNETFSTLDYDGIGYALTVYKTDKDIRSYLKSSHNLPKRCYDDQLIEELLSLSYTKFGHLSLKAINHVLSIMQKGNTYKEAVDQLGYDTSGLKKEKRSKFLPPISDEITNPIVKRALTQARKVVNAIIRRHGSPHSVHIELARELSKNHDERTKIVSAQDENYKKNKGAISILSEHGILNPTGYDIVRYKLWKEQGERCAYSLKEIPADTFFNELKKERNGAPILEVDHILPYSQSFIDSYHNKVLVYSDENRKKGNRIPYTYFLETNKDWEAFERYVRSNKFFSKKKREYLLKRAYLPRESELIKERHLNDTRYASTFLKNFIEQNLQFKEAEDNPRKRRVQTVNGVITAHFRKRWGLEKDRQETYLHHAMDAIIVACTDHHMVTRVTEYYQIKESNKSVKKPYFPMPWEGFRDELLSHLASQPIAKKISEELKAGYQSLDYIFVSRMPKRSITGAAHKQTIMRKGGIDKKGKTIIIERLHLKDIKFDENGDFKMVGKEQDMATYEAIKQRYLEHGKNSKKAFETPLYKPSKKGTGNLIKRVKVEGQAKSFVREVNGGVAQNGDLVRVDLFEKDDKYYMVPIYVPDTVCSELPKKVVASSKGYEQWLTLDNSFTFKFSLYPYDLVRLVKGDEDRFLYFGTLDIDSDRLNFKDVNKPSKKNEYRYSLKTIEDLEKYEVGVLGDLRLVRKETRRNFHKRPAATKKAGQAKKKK
Description: as §3

APG09102-nAPG07433.1 = APG09102-nAPG07433.1 (synthetic); assay: cell_activity; A16>G editing, HEK293FT
Description: as §3

APG03724-nAPG07433.1 = APG03724-nAPG07433.1 (synthetic); assay: cell_activity; A16>G editing, HEK293FT
Description: as §3

APG05723-nAPG07433.1 = APG05723-nAPG07433.1 (synthetic); assay: cell_activity; A16>G editing, HEK293FT
Sequence of APG05723-nAPG07433.1 (synthetic) (chain, as listed by the source): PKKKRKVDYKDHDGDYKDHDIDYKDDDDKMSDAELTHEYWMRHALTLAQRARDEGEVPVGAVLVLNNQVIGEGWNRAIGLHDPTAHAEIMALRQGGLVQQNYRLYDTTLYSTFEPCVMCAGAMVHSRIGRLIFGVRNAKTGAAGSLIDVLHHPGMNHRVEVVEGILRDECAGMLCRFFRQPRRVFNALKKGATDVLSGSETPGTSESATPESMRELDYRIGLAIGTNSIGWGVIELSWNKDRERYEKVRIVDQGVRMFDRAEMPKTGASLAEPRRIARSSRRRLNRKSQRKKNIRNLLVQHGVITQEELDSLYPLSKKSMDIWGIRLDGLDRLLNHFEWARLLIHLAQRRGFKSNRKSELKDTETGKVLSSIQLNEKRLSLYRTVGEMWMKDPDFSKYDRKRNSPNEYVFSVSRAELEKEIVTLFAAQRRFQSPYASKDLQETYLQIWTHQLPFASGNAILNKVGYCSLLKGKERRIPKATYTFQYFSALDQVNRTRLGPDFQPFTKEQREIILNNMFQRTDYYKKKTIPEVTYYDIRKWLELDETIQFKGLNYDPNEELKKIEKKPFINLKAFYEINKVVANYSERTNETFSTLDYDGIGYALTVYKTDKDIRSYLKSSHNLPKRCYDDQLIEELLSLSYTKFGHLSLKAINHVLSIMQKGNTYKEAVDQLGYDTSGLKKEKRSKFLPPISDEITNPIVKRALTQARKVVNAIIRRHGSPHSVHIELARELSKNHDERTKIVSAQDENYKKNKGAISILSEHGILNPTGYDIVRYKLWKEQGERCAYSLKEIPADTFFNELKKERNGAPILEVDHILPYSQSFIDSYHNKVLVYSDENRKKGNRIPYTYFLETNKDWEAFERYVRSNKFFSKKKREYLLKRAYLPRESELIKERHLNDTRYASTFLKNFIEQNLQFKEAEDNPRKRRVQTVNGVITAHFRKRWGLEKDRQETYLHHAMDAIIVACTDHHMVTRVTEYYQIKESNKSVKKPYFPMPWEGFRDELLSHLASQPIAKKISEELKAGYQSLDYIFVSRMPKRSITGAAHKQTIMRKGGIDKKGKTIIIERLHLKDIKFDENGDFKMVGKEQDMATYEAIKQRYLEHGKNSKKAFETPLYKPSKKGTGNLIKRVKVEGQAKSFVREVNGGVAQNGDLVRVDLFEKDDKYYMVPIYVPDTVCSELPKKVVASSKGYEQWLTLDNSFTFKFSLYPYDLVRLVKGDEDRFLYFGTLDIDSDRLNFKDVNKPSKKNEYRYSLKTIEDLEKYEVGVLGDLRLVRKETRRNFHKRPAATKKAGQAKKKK
Description: as §3

APG08196-nAPG07433.1 = APG08196-nAPG07433.1 (synthetic); assay: cell_activity; A16>G editing, HEK293FT
Description: as §3

APG08449-nAPG07433.1 = APG08449-nAPG07433.1 (synthetic); assay: cell_activity; A16>G editing, HEK293FT
Description: as §3

APG06489-nAPG07433.1 = APG06489-nAPG07433.1 (synthetic); assay: cell_activity; A16>G editing, HEK293FT
Description: as §3

Binder	activity (LPG50148-nAPG07433.1) [%]	activity (LPG50154-nAPG07433.1) [%]	activity (LPG50161-nAPG07433.1) [%]	activity (LPG50153-nAPG07433.1) [%]	activity (LPG50172-nAPG07433.1) [%]	activity (LPG50180-nAPG07433.1) [%]	activity (APG06333-nAPG07433.1) [%]	activity (APG05174-nAPG07433.1) [%]	activity (APG09949-nAPG07433.1) [%]	activity (APG09102-nAPG07433.1) [%]	activity (APG03724-nAPG07433.1) [%]	activity (APG05723-nAPG07433.1) [%]	activity (APG08196-nAPG07433.1) [%]	activity (APG08449-nAPG07433.1) [%]	activity (APG06489-nAPG07433.1) [%]
B1	49.4	2.26	1.47	1.12	1.78	1.8									
B2							4.2	3.2	3.4	6.2	4.1	1.9	3.3	5.3	2.5
